# Experimental data taken from patent publication US20250057776A1.
# Biological target: human integrin β5 (human) (UniProt P18084)
# Test: cell-based or functional assay
# Chain of UniProt P18084 (P18084 24-799 limits assumed): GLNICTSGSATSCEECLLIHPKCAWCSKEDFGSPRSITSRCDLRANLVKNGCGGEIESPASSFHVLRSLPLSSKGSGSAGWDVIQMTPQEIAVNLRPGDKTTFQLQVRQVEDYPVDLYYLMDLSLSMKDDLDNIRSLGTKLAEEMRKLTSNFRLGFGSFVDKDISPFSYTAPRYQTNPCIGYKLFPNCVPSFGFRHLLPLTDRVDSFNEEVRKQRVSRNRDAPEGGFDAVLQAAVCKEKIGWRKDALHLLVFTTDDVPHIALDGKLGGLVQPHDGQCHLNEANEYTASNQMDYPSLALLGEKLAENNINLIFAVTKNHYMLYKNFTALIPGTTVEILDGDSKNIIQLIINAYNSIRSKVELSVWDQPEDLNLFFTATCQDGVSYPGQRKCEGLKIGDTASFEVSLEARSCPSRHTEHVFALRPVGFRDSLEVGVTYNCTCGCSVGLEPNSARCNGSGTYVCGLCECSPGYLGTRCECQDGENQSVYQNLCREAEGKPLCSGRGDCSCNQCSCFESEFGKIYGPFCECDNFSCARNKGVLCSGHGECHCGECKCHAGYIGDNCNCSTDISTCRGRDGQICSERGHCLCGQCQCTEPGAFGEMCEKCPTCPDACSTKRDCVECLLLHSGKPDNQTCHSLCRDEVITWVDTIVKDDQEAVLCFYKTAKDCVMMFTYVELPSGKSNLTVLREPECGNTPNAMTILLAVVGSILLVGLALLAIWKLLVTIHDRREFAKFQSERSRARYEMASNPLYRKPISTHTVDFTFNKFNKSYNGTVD
substance,measurement,value
"anti-integrin β5 antibodies (model number D24A5, rabbit monoclonal antibodies #3629, commercially available from Cell Signaling Technology) (antibody)","Brightness (integration, A.U.) of plate of HPF cells after exosome introduction; integrin β5-introduced exosome + anti-integrin β5 antibodies (6.1 × 10^6 without antibodies)",5.1e+06 A.U.
